Source: article doi:10.1101/379156

What was measured:
Test in all cases: SEC
[1] = target: mFAS alpha-module, construct 17 (KS-MAT-ACP, mFAS sequences only) (Mus musculus)
[2] = target: bimodular construct 25 (MAT-ACP didomain fused to full-length mFAS) (Mus musculus) (UniProt P19096)
[3] = target: mFAS delta-module, construct 6 (2-2195) (Mus musculus) (UniProt P19096)
[4] = target: murine fatty acid synthase (mFAS) (Mus musculus) (UniProt P19096); conditions: remark: other sources report otherwise
[5] = target: mFAS alpha-module, construct 22 (KS-MAT-ACP-TE, mFAS sequences only) (Mus musculus)

Which stoichiometry N [1] does the source give for “mFAS alpha-module, construct 17 (KS-MAT-ACP, mFAS sequences only) (domain or fragment)” here?
Its stoichiometry N is 2.

For “bimodular construct 25 (MAT-ACP didomain fused to full-length mFAS) (from UniProt P19096 1-2504)”, which stoichiometry N [2] is on record?
Its stoichiometry N is 2.

For “mFAS delta-module, construct 6 (2-2195), P19096 2-2195”, which stoichiometry N [3] is on record?
Its stoichiometry N is 2.

“murine fatty acid synthase (mFAS), P19096 1-2504” was tested. Which stoichiometry N [4] did it give?
Its stoichiometry N is 2.

With “mFAS alpha-module, construct 22 (KS-MAT-ACP-TE, mFAS sequences only) (domain or fragment)” as the substance, how does the stoichiometry N [5] read?
The stoichiometry N was 2.
